Assay results published in US20170159065A1 (VIB VZW, published 2017).

T1: TIFY8 (Arabidopsis, UniProt Q84MB2 1-361)
T1 sequence (looked up): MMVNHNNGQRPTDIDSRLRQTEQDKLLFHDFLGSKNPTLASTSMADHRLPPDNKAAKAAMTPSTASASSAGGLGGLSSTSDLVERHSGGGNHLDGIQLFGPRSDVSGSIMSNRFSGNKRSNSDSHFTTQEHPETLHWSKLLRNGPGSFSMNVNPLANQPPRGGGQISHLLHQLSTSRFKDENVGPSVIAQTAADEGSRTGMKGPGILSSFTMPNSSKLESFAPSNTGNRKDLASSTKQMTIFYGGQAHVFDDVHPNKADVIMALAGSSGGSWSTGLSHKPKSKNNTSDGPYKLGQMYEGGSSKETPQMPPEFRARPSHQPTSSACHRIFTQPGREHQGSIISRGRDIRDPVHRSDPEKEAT

T2: JAZ3 (Arabidopsis, UniProt Q9LVI4 1-352)
T2 construct: Endogenous prey in TAP; Y2H fusion in the yeast assays
T2 sequence (looked up): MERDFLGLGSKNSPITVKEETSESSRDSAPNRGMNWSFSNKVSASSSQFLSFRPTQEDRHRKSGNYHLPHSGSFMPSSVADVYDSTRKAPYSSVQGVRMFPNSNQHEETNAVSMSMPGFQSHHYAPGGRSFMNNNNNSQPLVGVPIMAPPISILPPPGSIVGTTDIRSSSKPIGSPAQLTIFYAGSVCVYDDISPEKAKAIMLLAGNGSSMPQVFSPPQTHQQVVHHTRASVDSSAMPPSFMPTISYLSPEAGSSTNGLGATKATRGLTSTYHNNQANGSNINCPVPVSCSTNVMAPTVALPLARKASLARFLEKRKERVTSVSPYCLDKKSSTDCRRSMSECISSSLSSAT

B1: PPD2 (PEAPOD2) (other, Arabidopsis thaliana, UniProt Q8GY55 1-315, looked up)
chain: MDVGVTTAKSILEKPLKLLTEEDISQLTREDCRKFLKEKGMRRPSWNKSQAIQQVLSLKALYEPGDDSGAGILRKILVSQPPNPPRVTTTLIEPRNELEACGRIPLQEDDGACHRRDSPRSAEFSGSSGQFVADKDSHKTVSVSPRSPAETNAVVGQMTIFYSGKVNVYDGVPPEKARSIMHFAANPIDLPENGIFASSRMISKPMSKEKMVELPQYGLEKAPASRDSDVEGQANRKVSLQRYLEKRKDRRFSKTKKAPGVASSSLEMFLNRQPRMNAAYSQNLSGTGHCESPENQTKSPNISVDLNSDLNSEDN
notes: Used as tagged bait in TAP from Arabidopsis cell culture and as a GAL4 fusion in Y2H/Y3H; the tags and fusion partners are not described; also called PPD2-HBH

Experiments:
PPD2 (PEAPOD2) = target: B1; assay: yeast two-hybrid
yeast two-hybrid = target: the molecule itself; assay: yeast two-hybrid
TIFY8 = target: T1, TIFY8; assay: tandem affinity purification (TAP) from Arabidopsis cell culture, Orbitrap mass spectrometry
Source text: (§1) PPD proteins belong to the class II of the TIFY protein family together with 12 JAZ proteins […]. In the TIFY proteins, diverse domains are associated with different protein-protein interaction abilities, previously being able to isolate, by using tandem affinity purification (TAP), protein complexes from Arabidopsis cell cultures over-expressing JAZ proteins and to identify their interacting proteins (Pauwels et al., 2010). In order to determine the protein complex associated to PPD2, an updated and more sensitive protocol was applied using Orbitrap mass spectrometry (Eloy et al., 2012). […] To test this hypothesis, all 12 JAZ proteins, PPD1, PPD2 and TIFY8 for interaction with the PPD proteins were tested using yeast two-hybrid (Y2H) assays. These confirmed direct interaction with JAZ3 and TIFY8 and provided evidence of homo- and heterodimerization between PPD1 and PPD2. Moreover, the TAP analysis identified the TPL-adaptor protein NINJA and two proteins of yet unknown function, encoded by At3g24150 and At4g32295 and named KIX8 and KIX9 (see Table 3, Thakur et al., 2013).

JAZ3 = target: T2, JAZ3; assay: as above
Source text: as §1

binding result (PPD2 (PEAPOD2))	binding result (TIFY8)	binding result (JAZ3)	Binder	binding result (yeast two-hybrid)
binds			PPD1 (other, Arabidopsis thaliana, UniProt Q7XA73 1-313, looked up, Y2H fusion; also called PEAPOD1) MDVGVSPAKSILAKPLKLLTEEDISQLTREDCRKFLKDKGMRRPSWNKSQAIQQVLSLKALYEPGDDSGAGIFRKILVSQPVNPPRVTTTLIEPSNELEACGRVSYPEDNGACHRMDSPRSAEFSGGSGHFVSEKDGHKTTISPRSPAETSELVGQMTIFYSGKVNVYDGIPPEKARSIMHFAANPIDLPENGIFASSRMISKLISKEKMMELPQKGLEKANSSRDSGMEGQANRKVSLQRYREKRKDRKFSKAKKCPGVASSSLEMFLNCQPRMKAAYSQNLGCTGSPLHSQSPESQTKSPNLSVDLNSEGI	binds
	binds	binds	B1	binds
